The results in this text go back to EP4435105.

Experiment [1] addresses T1, human ASGR-1 (on CHO-S cells) (human, UniProt P07306).
T1 chain: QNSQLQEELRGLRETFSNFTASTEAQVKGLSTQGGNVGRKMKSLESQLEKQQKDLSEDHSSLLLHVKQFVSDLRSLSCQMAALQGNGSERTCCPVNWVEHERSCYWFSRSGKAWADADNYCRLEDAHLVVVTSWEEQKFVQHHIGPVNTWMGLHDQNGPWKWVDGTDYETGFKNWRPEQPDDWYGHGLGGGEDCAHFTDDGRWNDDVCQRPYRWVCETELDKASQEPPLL
Nature of the experiment: competition, FACS, GalNAc-PAA.

Experiment [2] has as its target T1, human ASGR-1 (on CHO-S cells). Description: competition, FACS, asialofetuin.

B1: 22G5 (antibody, V domains shown)
VH: EVQLLESGGGLVQPGGSLRLSCAASGFTFSSYAMNWVRQAPGMGLEWVSVISRSGGYTYYADSVKGRFTISRDNSKNTLYLQMNSLRAEDTAVYYCASRLAVAGSEAFDIWGQGTLVTVSS
VL: DIQMTQSPSSLSASVGDRVTITCRASQNISSYLNWYQQKQGKAPKLLIYAASSLQNGVPSRFSGRGSGTDFTLTISSLQPEDFATYYCQQSYRTPLFTFGPGTKVDFK
For B1, the IC50 (as a rule, the concentration that inhibits the measured activity by half) amounted to 11 nM in experiment [1] and 3.4 nM in experiment [2].

B2: 194C10 (antibody, V domains shown)
VH: QVQLQQWGAGLLKPSETLSLTCAVSGGSFRYYYWSWIRQPPGKGLEWFGEINHSGSTNYNPSLKSRVTISIDTSKNQFSLKLRSVTAADTAVYYCARDYGAFDIWGQGTMVTVSS
VL: EIVLTQSPGTLSLSPGERATLSCRASPSVNSGYLAWYQQKPGQTPRLLIFGASSRATGIPDRFSASGSGADFTLTISRLEPEDFAVYFCQQYESSPWTFGQGTKVEIK
Regarding B2, the IC50 turned out to be 87 nM in experiment [1] and 30 nM in experiment [2].

B3: 5E5 (antibody, V domains shown)
VH: QVQLVESGGGVVQPGRSLRLSCAASGFTFSNYVMHWVRQAPGKGLEWVAVIWYDGSNKYYADSVKGRFTISRDNSKNTLYLQMNSLRAEDTAVYYCTREVYSSGWYDYGMDVWGQGTTVTVSS
VL: DIQMTQSPSSLSASVGDRVTITCRASQGIRNDLGWYQQKPGKAPKRLIYAASSLQSGVPSRFSGSGSGTEFTLTISSLQPEDFATYYCLQHYSYPRTFGQGTKVEVK
For the molecule B3, the IC50 was above 200 nM in experiment [1] and 16 nM in experiment [2].

B4: 176H4 (antibody, V domains shown)
VH: QVQLVESGGGVVQPGRSLRLSCAASGFTFSSYGMHWVRQAPGKGLEWVAIIWYDGSYKYYADSVKGRFTISRDNSKNTLYLQMSSLRAEDTAVYYCARDAHDFWSGYFAYWGQGALVTVSS
VL: DIVMTQTPLSLSVTPGQPASISCKSSQSLLHGDGKTYLYWYLQKPGQPPQLLIYEVSNRFSGVPDRFSGSGSGTDFTLKISRVEAEDVGIYYCMQSIQIPWTFGQGTRVEIK
Turning to B4, the IC50 was 73 nM in experiment [1] and 59 nM in experiment [2].

B5: 4A2 (antibody, V domains shown)
VH: QVQLVQSGTEVKKPGASVKVSCKASGYTFTNYDINWVRQATGQGLEWMGWMHPNSGNTGYAQKFQGRVTLTRDTSISTAYMELSSLRSEDTAVYYCASSSGWYYFDYWGQGTLVTVSS
VL: DIVMTQSPDSLAVSLGERATINCKSSQSILHSSNNNNYLAWFQQKPGQPPKLLLYWASTRESGVPDRFSGSGSGTDFTLTISSLQPEDVAVYYCQQYYNTPVTFGPGTKVGIK
B5: the IC50 is 54 nM in experiment [1] and 11 nM in experiment [2].
